# Molecular target: interferon gamma receptors on HeLa cells (UniProt P15260)
# Experiment: cell-based or functional assay
# Sequence of UniProt P15260 (P15260 18-489 limits assumed): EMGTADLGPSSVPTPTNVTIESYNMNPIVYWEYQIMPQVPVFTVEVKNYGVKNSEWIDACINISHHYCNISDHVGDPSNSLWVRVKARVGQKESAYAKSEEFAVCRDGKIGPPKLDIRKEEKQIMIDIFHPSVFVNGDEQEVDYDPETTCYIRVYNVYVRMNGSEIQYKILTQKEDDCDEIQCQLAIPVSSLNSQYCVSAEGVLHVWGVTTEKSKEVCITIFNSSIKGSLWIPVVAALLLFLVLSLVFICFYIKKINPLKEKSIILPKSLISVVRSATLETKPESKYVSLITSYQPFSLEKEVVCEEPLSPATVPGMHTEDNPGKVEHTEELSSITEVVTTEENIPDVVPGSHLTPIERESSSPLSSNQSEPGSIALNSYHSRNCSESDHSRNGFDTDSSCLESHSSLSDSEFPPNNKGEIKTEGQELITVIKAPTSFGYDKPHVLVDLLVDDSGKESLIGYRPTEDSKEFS
substance,measurement,value
"interferon gamma E38N+S40T+S99T variant (full-length, expressed from pIGY-54 in CHO K1 cells) (from UniProt P01579 24-161) (ligand)","interferon gamma activity, Primary Assay (ISRE-luciferase reporter in HeLa cells), culture medium 24 h after transfection",1.3e+07 AU/ml
"interferon gamma S99T variant (full-length, expressed from pIGY-48 in CHO K1 cells) (from UniProt P01579 24-161) (ligand)","interferon gamma activity, Primary Assay (ISRE-luciferase reporter in HeLa cells), culture medium 24 h after transfection",5.1e+06 AU/ml
interferon gamma variant N16C+S99T (full-length) PEGylated with mPEG-OPSS (10 kDa) (from UniProt P01579 24-161) (ligand),"specific activity as percent of the corresponding non-PEGylated interferon gamma variant, Primary Assay",15%
same,"specific activity, Primary Assay (ISRE-luciferase reporter in HeLa cells)",1.3e+06 AU/mg
interferon gamma variant N59C+S99T (full-length) PEGylated with mPEG-MAL (5 kDa) (from UniProt P01579 24-161) (ligand),"specific activity as percent of the corresponding non-PEGylated interferon gamma variant, Primary Assay",15%
same,"specific activity, Primary Assay (ISRE-luciferase reporter in HeLa cells)",2.4e+06 AU/mg
